Changes are numbered by the printed parent chain. Names and notes keep the numbering of the source. Values belong to the binder of their own block, whether it stands above or below them.
Tests used:
VN:SPT-4A (SPATULA …) = molecular target: T1, VN:SPT-4A (SPATULA V176A-V177A-D178A-E179A fused to the N-terminal fragment of Venus YFP) (Arabidopsis thaliana, UniProt Q9FUA4 1-373, V176A | V177A | D178A | E179A); experiment: split reporter (BiFC, NanoBiT); BiFC with split Venus YFP (VN 1-154, VC 155-238) in Arabidopsis Col-0 mesophyll protoplasts, PEG-Ca transfection, 35S promoter, read 16 h after transfection by confocal microscopy; frequency = YFP-positive protoplasts/total protoplasts x 100, four images of about 200 protoplasts each; conditions: partners not purified
T1 construct: SPATULA (SPT), Arabidopsis thaliana, AT4G36930; source: Arabidopsis Col-0 mesophyll protoplasts, transfected (PEG-Ca), in cells; not shown: Venus YFP N-terminal fragment (residues 1-154)
T1 sequence (looked up): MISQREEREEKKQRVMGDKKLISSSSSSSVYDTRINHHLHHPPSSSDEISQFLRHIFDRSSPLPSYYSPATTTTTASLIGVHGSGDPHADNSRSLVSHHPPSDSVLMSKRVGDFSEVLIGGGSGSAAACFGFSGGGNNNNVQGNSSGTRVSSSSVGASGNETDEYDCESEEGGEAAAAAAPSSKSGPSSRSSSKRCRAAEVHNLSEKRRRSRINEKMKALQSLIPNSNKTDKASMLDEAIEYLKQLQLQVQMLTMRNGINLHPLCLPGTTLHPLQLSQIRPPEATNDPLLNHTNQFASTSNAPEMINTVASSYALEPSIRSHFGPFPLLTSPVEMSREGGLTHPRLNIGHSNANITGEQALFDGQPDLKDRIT

[1] = molecular target: T2, VN:SPT (SPATULA fused to the N-terminal fragment of Venus YFP) (Arabidopsis thaliana, UniProt Q9FUA4 1-373); experiment: as above; conditions: partners not purified
T2 construct: SPATULA (SPT), bHLH transcription factor of Arabidopsis thaliana, AT4G36930; source: Arabidopsis Col-0 mesophyll protoplasts, transfected (PEG-Ca), in cells; not shown: Venus YFP N-terminal fragment (residues 1-154)
T2 sequence (looked up): T1 sequence (looked up) with A176V, A177V, A178D, A179E

average interaction frequency (percent of protoplasts with YFP signal) (VN:SPT-4A (SPATULA …)): 13.5%
B1: VC:IND (INDEHISCENT fused to the C-terminal fragment of Venus YFP) (natural protein, Arabidopsis thaliana, UniProt O81313 1-198, looked up)
chain: MENGMYKKKGVCDSCVSSKSRSNHSPKRSMMEPQPHHLLMDWNKANDLLTQEHAAFLNDPHHLMLDPPPETLIHLDEDEEYDEDMDAMKEMQYMIAVMQPVDIDPATVPKPNRRNVRISDDPQTVVARRRRERISEKIRILKRIVPGGAKMDTASMLDEAIRYTKFLKRQVRILQPHSQIGAPMANPSYLCYYHNSQP
notes: INDEHISCENT (IND), bHLH transcription factor of Arabidopsis thaliana, AT4G00120; source: Arabidopsis Col-0 mesophyll protoplasts, transfected (PEG-Ca), in cells; not shown: Venus YFP C-terminal fragment (residues 155-238)

average interaction frequency (percent of protoplasts with YFP signal) (VN:SPT-4A (SPATULA …)): 14.9%
average interaction frequency (percent of protoplasts with YFP signal) [1]: 13%
B2: VC:IND-3A (INDEHISCENT N112A-R113A-R114A fused to the C-terminal fragment of Venus YFP) (natural protein, Arabidopsis thaliana, UniProt O81313 1-198, looked up)
chain: B1 chain with N112A, R113A, R114A
notes: INDEHISCENT (IND), Arabidopsis thaliana, AT4G00120; the methods list only VC:IND-3A; source: Arabidopsis Col-0 mesophyll protoplasts, transfected (PEG-Ca), in cells; not shown: Venus YFP C-terminal fragment (residues 155-238)

average interaction frequency (percent of protoplasts with YFP signal) [1]: 34.2%
B3: VC:HEC1 (HECATE1 fused to the C-terminal fragment of Venus YFP) (natural protein, Arabidopsis thaliana, UniProt Q9FHA7 1-241, looked up)
chain: MDSDIMNMMMHQMEKLPEFCNPNSSFFSPDHNNTYPFLFNSTHYQSDHSMTNEPGFRYGSGLLTNPSSISPNTAYSSVFLDKRNNSNNNNNGTNMAAMREMIFRIAVMQPIHIDPEAVKPPKRRNVRISKDPQSVAARHRRERISERIRILQRLVPGGTKMDTASMLDEAIHYVKFLKKQVQSLEEQAVVTGGGGGGGGRVLIGGGGMTAASGGGGGGGVVMKGCGTVGTHQMVGNAQILR
notes: HECATE1 (HEC1), bHLH transcription factor of Arabidopsis thaliana, AT5G67060; source: Arabidopsis Col-0 mesophyll protoplasts, transfected (PEG-Ca), in cells; not shown: Venus YFP C-terminal fragment (residues 155-238)

Source: PMC12196928, “Site-Directed Mutagenesis Mediated by Molecular Modeling and Docking and Its Effect on the Protein–Protein Interactions of the bHLH Transcription Factors SPATULA, HECATE1, and INDEHISCENT” (Plants, 2025)
